The source of these data is patent publication US20250163127A1.

Common to all, as to test: flow cytometry, transfected HEK293 cells
(A flow cytometer gives signals particle by particle.)

One assay deals with T1, TIGIT (human) (UniProt Q495A1).
T1 sequence: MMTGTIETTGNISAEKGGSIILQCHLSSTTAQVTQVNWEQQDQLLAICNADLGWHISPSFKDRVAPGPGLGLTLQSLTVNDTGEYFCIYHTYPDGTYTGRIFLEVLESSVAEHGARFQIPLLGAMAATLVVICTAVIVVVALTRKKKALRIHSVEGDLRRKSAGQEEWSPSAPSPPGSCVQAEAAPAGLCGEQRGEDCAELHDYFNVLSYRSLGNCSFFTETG

The next assay has as its target T2, CD226 (human) (UniProt Q15762).
T2 sequence: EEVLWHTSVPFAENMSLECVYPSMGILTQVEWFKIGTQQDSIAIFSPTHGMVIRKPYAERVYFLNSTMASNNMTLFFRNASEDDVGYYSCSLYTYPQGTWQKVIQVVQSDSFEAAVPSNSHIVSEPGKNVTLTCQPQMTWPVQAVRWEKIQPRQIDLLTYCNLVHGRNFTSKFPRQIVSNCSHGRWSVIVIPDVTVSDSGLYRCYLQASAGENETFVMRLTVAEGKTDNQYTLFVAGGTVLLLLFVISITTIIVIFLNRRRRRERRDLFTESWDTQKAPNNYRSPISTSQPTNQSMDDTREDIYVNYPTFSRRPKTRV

The target in the next assay is T3, CD96 (human) (UniProt P40200).
T3 sequence: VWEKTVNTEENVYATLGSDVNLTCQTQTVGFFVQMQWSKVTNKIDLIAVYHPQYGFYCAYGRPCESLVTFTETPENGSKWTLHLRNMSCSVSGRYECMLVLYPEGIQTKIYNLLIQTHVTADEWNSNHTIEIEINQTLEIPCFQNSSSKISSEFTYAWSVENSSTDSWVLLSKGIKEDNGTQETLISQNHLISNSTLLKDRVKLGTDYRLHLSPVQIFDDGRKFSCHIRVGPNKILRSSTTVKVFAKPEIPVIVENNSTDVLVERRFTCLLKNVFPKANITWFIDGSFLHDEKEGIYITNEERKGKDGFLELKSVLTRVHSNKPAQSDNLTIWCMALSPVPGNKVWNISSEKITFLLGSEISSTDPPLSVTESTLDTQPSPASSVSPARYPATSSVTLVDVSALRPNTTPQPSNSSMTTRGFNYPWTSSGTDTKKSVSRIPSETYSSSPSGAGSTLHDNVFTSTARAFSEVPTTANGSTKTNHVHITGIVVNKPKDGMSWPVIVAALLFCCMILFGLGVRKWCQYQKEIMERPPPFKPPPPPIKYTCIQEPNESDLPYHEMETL

A further assay has as its target CD112R (human) (UniProt Q6DKI7).

Sequence of CD112R (human) (Q6DKI7 whole entry): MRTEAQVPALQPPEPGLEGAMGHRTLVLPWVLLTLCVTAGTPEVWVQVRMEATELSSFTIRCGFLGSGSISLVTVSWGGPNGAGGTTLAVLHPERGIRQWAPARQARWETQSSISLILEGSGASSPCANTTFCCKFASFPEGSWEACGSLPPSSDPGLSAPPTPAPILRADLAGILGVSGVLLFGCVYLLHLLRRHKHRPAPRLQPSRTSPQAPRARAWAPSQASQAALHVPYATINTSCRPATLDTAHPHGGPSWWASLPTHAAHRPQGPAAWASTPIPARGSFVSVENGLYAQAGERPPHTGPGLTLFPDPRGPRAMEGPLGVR

As for “CD155 variant IgV-Fc P18S, H59N, V75A, L79P, A81T, F91S, L104M, T107M (Fc fusion)”, the MFI at 25 nM with TIGIT (human) was determined as 800 MFI.
Same read-out and setting: the figure for “CD155 variant IgV-Fc V9L, V11M, P18S, N35S, S54G, Q62K, L79P, L104M, T107M, V115M (Fc fusion)” is 3000 MFI.
In the case of “variant CD155 IgV-Fc, A13R, D23Y, E37P, S42P, Q62Y, A81E (Fc fusion)”, the MFI at 100 nM in the assay with TIGIT (human) amounted to 4160.
For the substance variant CD155 IgV-Fc, G111R (Fc fusion), the MFI at 100 nM amounted to 2790 in the assay with CD226 (human) and 3320 in the assay with CD96 (human).
Consider variant CD155 IgV-Fc, L104E (Fc fusion), for which the MFI at 100 nM came out at 1800 with CD112R (human), 2260 in the assay with CD226 (human), 1560 in the assay with CD96 (human) and 3140 with TIGIT (human). The fold increase to WT ECD in the assay with CD112R (human) was determined as 1.01 fold; in the assay with CD96 (human) it was 0.02 fold.
Consider variant CD155 IgV-Fc, L104Q (Fc fusion), for which the values for the MFI at 100 nM with CD226 (human) and with CD96 (human) were 3790 and 1540, respectively.
Substance “variant CD155 IgV-Fc, P18L, E37S, Q62M, G80S, A81P, G99Y, S112N (Fc fusion)” yielded an MFI at 100 nM with CD96 (human) of 3340.
“variant CD155 IgV-Fc, P18S, V41A, S42G, T45G, L104N (Fc fusion)”: the MFI at 100 nM with TIGIT (human) worked out at 3820.
Consider variant CD155 IgV-Fc, Q62F (Fc fusion), for which the figures for the MFI at 100 nM in the assay with CD226 (human), in the assay with CD96 (human) and with TIGIT (human) were 2570, 2760 and 2210, respectively.
Regarding “variant CD155 IgV-Fc, Q62F, L104E, G111R (Fc fusion)”, the MFI at 100 nM in the assay with CD112R (human) came out at 1700; with CD226 (human), 2040; with CD96 (human), 1520.
Take variant CD155 IgV-Fc, Q62Y (Fc fusion): the MFI at 100 nM in the assay with CD226 (human) was found to be 2620; with CD96 (human) it was 1830; with TIGIT (human), 2530.
With variant CD155 IgV-Fc, S42A (Fc fusion), the MFI at 100 nM amounted to 2190 with CD226 (human) and 1620 with CD96 (human).
For “variant CD155 IgV-Fc, S42A, L104Q, G111R (Fc fusion)”, the values for the MFI at 100 nM with CD112R (human), in the assay with CD226 (human) and with CD96 (human) were 1820, 1900 and 1700, respectively.
Regarding “variant CD155 IgV-Fc, S42A, S52L, L104E, G111R (Fc fusion)”, the MFI at 100 nM was found to be 1780 in the assay with CD112R (human), 1890 in the assay with CD226 (human), 1610 in the assay with CD96 (human) and 2260 in the assay with TIGIT (human). In addition, the fold increase to WT ECD came out at 1 fold with CD112R (human) and 0.02 fold in the assay with CD96 (human).
For the substance “variant CD155 IgV-Fc, S42A, S52Q, L104Q, G111R (Fc fusion)”, the MFI at 100 nM amounted to 2160 in the assay with CD226 (human) and 1640 with CD96 (human).
For the substance variant CD155 IgV-Fc, S42C (Fc fusion), the results for the MFI at 100 nM in the assay with CD112R (human), in the assay with CD226 (human) and in the assay with CD96 (human) were 1680, 2100 and 1590, respectively.
Turning to “variant CD155 IgV-Fc, S42C, S52L (Fc fusion)”, the results for the MFI at 100 nM with CD226 (human) and with CD96 (human) were 2150 and 1480, respectively.
For “variant CD155 IgV-Fc, S42C, S52M, Q62F (Fc fusion)” the same measures were 2080 and 1480.
Turning to variant CD155 IgV-Fc, S42G (Fc fusion), the MFI at 100 nM is 1820 with CD112R (human), 2450 with CD226 (human), 1700 in the assay with CD96 (human) and 4840 with TIGIT (human). The fold increase to WT ECD with CD112R (human) came to 1.02 fold; with CD96 (human) it was 0.02 fold.
Take “variant CD155 IgV-Fc, S42G, S52L, Q62F, L104Q (Fc fusion)”: the MFI at 100 nM in the assay with CD226 (human) is 2160; in the assay with CD96 (human), 1640.
Take “variant CD155 IgV-Fc, S42G, S52Q, L104E, G111R (Fc fusion)”: the MFI at 100 nM with CD226 (human) amounted to 2020.
In the case of variant CD155 IgV-Fc, S42L (Fc fusion), the MFI at 100 nM came to 1740 with CD112R (human), 2190 with CD226 (human) and 1620 with CD96 (human).
As to “variant CD155 IgV-Fc, S42L, S52L, Q62F, L104Q (Fc fusion)”, the values for the MFI at 100 nM with CD226 (human) and in the assay with CD96 (human) were 2640 and 2320, respectively.
Take variant CD155 IgV-Fc, S42N (Fc fusion): the MFI at 100 nM with CD112R (human) worked out at 1700; with CD226 (human), 1910; with CD96 (human), 1690.
Take “variant CD155 IgV-Fc, S42N, L104Q, G111R (Fc fusion)”: the MFI at 100 nM was 2310 with CD226 (human), 1960 in the assay with CD96 (human) and 2430 in the assay with TIGIT (human).
As for “variant CD155 IgV-Fc, S42N, S52E, V57L, L104E (Fc fusion)”, the values for the MFI at 100 nM with CD112R (human), with CD226 (human) and in the assay with CD96 (human) were 1690, 1740 and 1540, respectively.
Consider “variant CD155 IgV-Fc, S42N, S52Q, Q62F (Fc fusion)”, for which the MFI at 100 nM in the assay with CD226 (human) was found to be 2150; in the assay with CD96 (human), 1740; with TIGIT (human) it was 2400.
Take variant CD155 IgV-Fc, S42Q (Fc fusion): the MFI at 100 nM was 2230 with CD226 (human) and 2140 in the assay with CD96 (human).
On to “variant CD155 IgV-Fc, S42V, S52E (Fc fusion)”, for which the MFI at 100 nM with CD112R (human) worked out at 1810; with CD226 (human) it was 2270; with CD96 (human) it was 2530.
As for variant CD155 IgV-Fc, S42W (Fc fusion), the figures for the MFI at 100 nM with CD226 (human), with CD96 (human) and in the assay with TIGIT (human) were 2130, 2560 and 2430, respectively.
For the substance “variant CD155 IgV-Fc, S42W, S52Q, V57L, Q62Y (Fc fusion)”, the MFI at 100 nM with CD226 (human) worked out at 2140; with CD96 (human), 1700.
In the case of “variant CD155 IgV-Fc, S42W, S52R, Q62Y, L104Q (Fc fusion)”, the MFI at 100 nM with CD112R (human) amounted to 1820; in the assay with CD226 (human) it was 2300; with CD96 (human) it was 1760.
On to variant CD155 IgV-Fc, S52E (Fc fusion), for which the values for the MFI at 100 nM with CD226 (human), in the assay with CD96 (human) and with TIGIT (human) were 2600, 1800 and 2660, respectively.
As for variant CD155 IgV-Fc, S52L (Fc fusion), the MFI at 100 nM in the assay with CD226 (human) came to 2680; with TIGIT (human), 2220.
Take variant CD155 IgV-Fc, S52M (Fc fusion): the MFI at 100 nM with CD226 (human) turned out to be 1900; with CD96 (human) it was 1610.
For the substance “variant CD155 IgV-Fc, S52M, L104Q (Fc fusion)”, the MFI at 100 nM in the assay with CD226 (human) came out at 2250; in the assay with CD96 (human), 1630; with TIGIT (human) it was 2670.
“variant CD155 IgV-Fc, S52M, Q62Y (Fc fusion)”: the values for the MFI at 100 nM with CD112R (human), with CD226 (human) and in the assay with CD96 (human) were 1770, 2000 and 1650, respectively.
With “variant CD155 IgV-Fc, S52M, V57L (Fc fusion)”, the MFI at 100 nM is 2430 in the assay with CD226 (human) and 1860 with CD96 (human).
For variant CD155 IgV-Fc, S52R (Fc fusion), the MFI at 100 nM in the assay with CD226 (human) was found to be 3960; with CD96 (human), 4850; with TIGIT (human), 4400.
For “variant CD155 IgV-Fc, S52R, Q62F, L104Q, G111R (Fc fusion)” the same measures were 3170, 2360 and 2970.
As for variant CD155 IgV-Fc, S52W (Fc fusion), the MFI at 100 nM in the assay with CD112R (human) was found to be 1610; in the assay with CD226 (human), 2040; with CD96 (human), 1710.
On to “variant CD155 IgV-Fc, S52W, L104E (Fc fusion)”, for which the MFI at 100 nM with CD226 (human) was determined as 1910; with CD96 (human) it was 1630.
In the case of “variant CD155 IgV-Fc, T45Q, S52L, L104E, G111R (Fc fusion)”, the MFI at 100 nM is 2390 with CD226 (human), 1580 in the assay with CD96 (human) and 2290 with TIGIT (human).
For “variant CD155 IgV-Fc, T45Q, S52L, V57L, L104E (Fc fusion)” the same measures were 5940, 1530 and 2860.
For “variant CD155 IgV-Fc, T45Q, S52Q (Fc fusion)”, in that order: 5790, 2450 and 4810.
